Earlier results in article PMC4160827.

Target: HIF-1α CODD (Homo sapiens) (UniProt Q16665)

In the case of PHD2 (from UniProt Q9GZT9), the Kd is given as 14 µM.
